Patent US20230059341A1 (TESARO, published 2023)
Read-outs that look alike come from different tables or passages of the source. Blank lines part the entries; values can stand above or below the binder they belong to.

Columns and labels:
[1] = target: T1, human PD-1 on PD-1 effector cells (Jurkat T cells, Promega #J1155) (human, UniProt Q15116 25-288); experiment: cell-based or functional assay
[2] = target: T2, PD-1 protein constitutively expressed on engineered CHO K1 cells (UniProt Q15116 25-288, limits assumed); experiment: MSD potency assay: competitive binding on CHO K1 cells expressing PD-1, inhibition of PD-L1-mFc binding, ECL; percent of reference material
T2 construct: whole, on cells; also called programmed cell death protein 1
Experimental: (§1) The Meso Scale Discovery (MSD) potency assay employs engineered CHO K1 cells constitutively expressing the PD-1 protein. […] The readout is measured using a specific detection antibody mixture that releases an electrochemiluminescence (ECL) signal that can be quantified.

[3] = target: T2, PD-1 protein constitutively expressed …; experiment: as above; remark: listed apart in the source
Experimental: as §1

[4] = target: T1, human PD-1 on PD-1 effector cells …; experiment: cell-based or functional assay; remark: listed apart in the source
[5] = target: T1, human PD-1 on PD-1 effector cells …; experiment: cell-based or functional assay; remark: listed apart in the source
[6] = target: T3, Neonatal Fc Receptor (FcRn) (UniProt P55899 24-297; P61769 21-119, limits assumed); experiment: FcRn binding assay, BIACORE (SPR)
[7] = target: T3, Neonatal Fc Receptor (FcRn); experiment: BIACORE (SPR), antibody immobilized on sensor chip, FcRn injected as analyte
Experimental: FcRn binding was assessed via BIACORE analysis. […] Various concentrations of analyte (FcRn) were injected for analysis of the association and dissociation properties.

[8] = target: T2, PD-1 protein constitutively expressed …; experiment: MSD potency assay: competitive binding on CHO K1 cells expressing PD-1, inhibition of PD-L1-mFc binding, ECL; percent of reference material; remark: listed apart in the source
Experimental: as §1

[9] = target: T1, human PD-1 on PD-1 effector cells …; experiment: cell-based or functional assay; remark: listed apart in the source
[10] = target: T3, Neonatal Fc Receptor (FcRn); experiment: FcRn binding assay, BIACORE (SPR); remark: listed apart in the source
[11] = target: T3, Neonatal Fc Receptor (FcRn); experiment: FcRn binding assay, BIACORE (SPR); remark: listed apart in the source

T2 sequence (Q15116 25-288 limits assumed, change not shown): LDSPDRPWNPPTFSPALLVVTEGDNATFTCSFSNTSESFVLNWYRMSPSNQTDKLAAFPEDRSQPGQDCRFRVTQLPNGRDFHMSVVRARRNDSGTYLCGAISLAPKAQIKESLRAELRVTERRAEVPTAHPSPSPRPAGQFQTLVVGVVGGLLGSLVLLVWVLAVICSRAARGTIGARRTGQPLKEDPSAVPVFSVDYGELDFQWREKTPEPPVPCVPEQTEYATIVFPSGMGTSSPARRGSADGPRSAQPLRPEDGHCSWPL
T1 sequence (Q15116 25-288): as the sequence (Q15116 25-288 limits assumed, change not shown) above

Relative Potency, Cell-Based Bioassay [1]: 5% | Relative Potency, MSD Binding [2]: 47%
B1: Dostarlimab, AAPH treated, 40° C., 5 days (antibody, human IgG4 S228P, kappa, V domains shown)
VH: EVQLLESGGGLVQPGGSLRLSCAASGFTFSSYDMSWVRQAPGKGLEWVSTISGGGSYTYYQDSVKGRFTISRDNSKNTLYLQMNSLRAEDTAVYYCASPYYAMDYWGQGTTVTVSS
VL: DIQLTQSPSFLSAYVGDRVTITCKASQDVGTAVAWYQQKPGKAPKLLIYWASTLHTGVPSRFSGSGSGTEFTLTISSLQPEDFATYYCQHYSSYPWTFGQGTKLEIKR
modifications: percent of population: Trp 50 oxidation 86.8; PTM levels of this sample are not tabulated
notes: 5 mM AAPH; HMW 16.4%; also called AAPH, 40° C., 5 days

Relative Potency, MSD Binding [3]: 79%
B2: Dostarlimab, H2O2 treated, 25° C., 1 week (antibody, human IgG4 S228P, kappa, V domains shown)
VH: EVQLLESGGGLVQPGGSLRLSCAASGFTFSSYDMSWVRQAPGKGLEWVSTISGGGSYTYYQDSVKGRFTISRDNSKNTLYLQMNSLRAEDTAVYYCASPYYAMDYWGQGTTVTVSS
VL: DIQLTQSPSFLSAYVGDRVTITCKASQDVGTAVAWYQQKPGKAPKLLIYWASTLHTGVPSRFSGSGSGTEFTLTISSLQPEDFATYYCQHYSSYPWTFGQGTKLEIKR
modifications: percent of population: Asn 137 deamidation 1.3; percent of population: Met 34 oxidation 14.0; Met 103 oxidation 64.9; Met 248 oxidation 98.6; Asn 311 deamidation 7.0; Met 354 oxidation 99.8; Asn 380 deamidation 10.9; Asn 385 deamidation 1.8; Met 424 oxidation 98.0; Lys 443 clipped 98.0
notes: 0.1% (v:v) H2O2; also called H2O2, 25° C., 1 week

Relative Potency (Potency by cell-based bioassay) [4]: 86%
B3: Dostarlimab, sustained agitation, 300 rpm, 25° C., 3 weeks (antibody, human IgG4 S228P, kappa, V domains shown)
VH: EVQLLESGGGLVQPGGSLRLSCAASGFTFSSYDMSWVRQAPGKGLEWVSTISGGGSYTYYQDSVKGRFTISRDNSKNTLYLQMNSLRAEDTAVYYCASPYYAMDYWGQGTTVTVSS
VL: DIQLTQSPSFLSAYVGDRVTITCKASQDVGTAVAWYQQKPGKAPKLLIYWASTLHTGVPSRFSGSGSGTEFTLTISSLQPEDFATYYCQHYSSYPWTFGQGTKLEIKR
modifications: all PTM levels within analytical variability of the control

Relative Potency, Cell-Based Bioassay [5]: 47% | Kd [6]: 12400 nM | Relative Potency, MSD Binding [3]: 74%
B4: Dostarlimab, H2O2 treated, 25° C., 2 weeks (antibody, human IgG4 S228P, kappa)
heavy: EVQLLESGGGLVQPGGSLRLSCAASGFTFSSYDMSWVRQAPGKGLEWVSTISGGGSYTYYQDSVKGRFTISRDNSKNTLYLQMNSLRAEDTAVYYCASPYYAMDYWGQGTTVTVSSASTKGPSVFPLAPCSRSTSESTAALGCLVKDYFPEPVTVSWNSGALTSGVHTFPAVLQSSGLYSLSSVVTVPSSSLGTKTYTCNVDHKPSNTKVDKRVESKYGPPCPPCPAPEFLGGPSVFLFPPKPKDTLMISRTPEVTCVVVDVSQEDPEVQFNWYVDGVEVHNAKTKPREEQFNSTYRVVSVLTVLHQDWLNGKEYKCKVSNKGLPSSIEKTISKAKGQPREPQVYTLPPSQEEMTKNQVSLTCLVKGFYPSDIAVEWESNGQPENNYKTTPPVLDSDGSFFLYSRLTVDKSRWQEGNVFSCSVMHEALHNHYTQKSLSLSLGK
light: DIQLTQSPSFLSAYVGDRVTITCKASQDVGTAVAWYQQKPGKAPKLLIYWASTLHTGVPSRFSGSGSGTEFTLTISSLQPEDFATYYCQHYSSYPWTFGQGTKLEIKRTVAAPSVFIFPPSDEQLKSGTASVVCLLNNFYPREAKVQWKVDNALQSGNSQESVTEQDSKDSTYSLSSTLTLSKADYEKHKVYACEVTHQGLSSPVTKSFNRGEC
modifications: percent of population: Trp 50 oxidation 1.3; Asn 137 deamidation 1.3; percent of population: Met 34 oxidation 28.8; Met 83 oxidation 1.1; Met 103 oxidation 86.1; Met 248 oxidation 99.6; Asn 311 deamidation 7.4; Met 354 oxidation 99.8; Asn 380 deamidation 10.5; Asn 385 deamidation 1.9; Met 424 oxidation 98.1; Lys 443 clipped 97.7
notes: 0.1% (v:v) H2O2; also called H2O2, 25° C., 2 weeks

Kd [7]: 1690 nM
B5: Dostarlimab reference material (antibody, human IgG4 S228P, kappa)
heavy: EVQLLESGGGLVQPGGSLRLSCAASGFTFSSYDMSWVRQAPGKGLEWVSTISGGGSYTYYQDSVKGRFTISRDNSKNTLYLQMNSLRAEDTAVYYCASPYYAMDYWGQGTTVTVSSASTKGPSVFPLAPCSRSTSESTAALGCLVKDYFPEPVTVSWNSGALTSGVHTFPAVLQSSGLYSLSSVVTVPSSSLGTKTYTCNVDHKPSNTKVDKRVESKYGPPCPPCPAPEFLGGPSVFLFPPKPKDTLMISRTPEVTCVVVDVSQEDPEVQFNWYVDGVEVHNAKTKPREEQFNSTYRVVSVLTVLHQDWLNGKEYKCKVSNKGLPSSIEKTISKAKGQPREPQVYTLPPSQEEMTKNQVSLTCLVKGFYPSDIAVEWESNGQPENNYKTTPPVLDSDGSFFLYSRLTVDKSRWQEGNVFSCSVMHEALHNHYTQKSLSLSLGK
light: DIQLTQSPSFLSAYVGDRVTITCKASQDVGTAVAWYQQKPGKAPKLLIYWASTLHTGVPSRFSGSGSGTEFTLTISSLQPEDFATYYCQHYSSYPWTFGQGTKLEIKRTVAAPSVFIFPPSDEQLKSGTASVVCLLNNFYPREAKVQWKVDNALQSGNSQESVTEQDSKDSTYSLSSTLTLSKADYEKHKVYACEVTHQGLSSPVTKSFNRGEC

Relative Potency, MSD Binding [8]: 88% | Relative Potency, Cell-Based Bioassay [9]: 94% | Kd [10]: 2250 nM
B6: Dostarlimab, thermally degraded, 40° C., 3 weeks (antibody, human IgG4 S228P, kappa)
heavy: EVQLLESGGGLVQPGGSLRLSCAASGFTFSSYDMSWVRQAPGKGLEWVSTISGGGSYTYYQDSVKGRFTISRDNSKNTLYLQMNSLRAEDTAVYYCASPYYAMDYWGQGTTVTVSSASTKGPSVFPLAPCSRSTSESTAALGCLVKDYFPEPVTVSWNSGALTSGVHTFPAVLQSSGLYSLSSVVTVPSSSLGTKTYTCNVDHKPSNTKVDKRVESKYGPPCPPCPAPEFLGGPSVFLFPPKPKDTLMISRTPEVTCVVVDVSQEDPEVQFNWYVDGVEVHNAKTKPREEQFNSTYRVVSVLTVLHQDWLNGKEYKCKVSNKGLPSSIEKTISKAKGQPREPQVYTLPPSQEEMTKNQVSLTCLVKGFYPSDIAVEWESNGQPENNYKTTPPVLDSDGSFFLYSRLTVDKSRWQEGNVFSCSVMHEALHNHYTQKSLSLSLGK
light: DIQLTQSPSFLSAYVGDRVTITCKASQDVGTAVAWYQQKPGKAPKLLIYWASTLHTGVPSRFSGSGSGTEFTLTISSLQPEDFATYYCQHYSSYPWTFGQGTKLEIKRTVAAPSVFIFPPSDEQLKSGTASVVCLLNNFYPREAKVQWKVDNALQSGNSQESVTEQDSKDSTYSLSSTLTLSKADYEKHKVYACEVTHQGLSSPVTKSFNRGEC
modifications: percent of population: Asp 151/167 isomerization 1.1; percent of population: Met 248 oxidation 5.4; Asp 261/266/276 isomerization 2.8; Asn 311 deamidation 6.5; Met 354 oxidation 1.9; Asn 380 deamidation 10.0; Asn 385 deamidation 2.1; Met 424 oxidation 1.7; Asn 430 deamidation 1.2; Lys 443 clipped 97.8
notes: Mixture; HMW 1.4%, acidic peaks 33.8%

Relative Potency, Cell-Based Bioassay [1]: 44% | Kd [11]: 2340 nM | Relative Potency, MSD Binding [2]: 76%
B7: Dostarlimab, AAPH treated, 40° C., 1 day (antibody, human IgG4 S228P, kappa)
heavy: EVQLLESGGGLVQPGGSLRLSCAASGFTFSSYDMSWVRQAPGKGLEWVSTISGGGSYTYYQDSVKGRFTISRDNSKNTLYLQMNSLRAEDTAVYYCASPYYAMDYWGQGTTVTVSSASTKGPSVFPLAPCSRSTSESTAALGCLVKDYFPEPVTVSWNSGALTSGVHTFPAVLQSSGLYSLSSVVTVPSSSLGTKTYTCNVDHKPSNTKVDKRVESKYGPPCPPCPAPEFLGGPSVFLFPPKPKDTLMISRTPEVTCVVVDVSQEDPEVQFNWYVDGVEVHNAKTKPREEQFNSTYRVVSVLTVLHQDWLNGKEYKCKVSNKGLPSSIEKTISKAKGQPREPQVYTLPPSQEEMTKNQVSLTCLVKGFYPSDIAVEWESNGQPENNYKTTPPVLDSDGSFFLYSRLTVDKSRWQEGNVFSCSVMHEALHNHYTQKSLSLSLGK
light: DIQLTQSPSFLSAYVGDRVTITCKASQDVGTAVAWYQQKPGKAPKLLIYWASTLHTGVPSRFSGSGSGTEFTLTISSLQPEDFATYYCQHYSSYPWTFGQGTKLEIKRTVAAPSVFIFPPSDEQLKSGTASVVCLLNNFYPREAKVQWKVDNALQSGNSQESVTEQDSKDSTYSLSSTLTLSKADYEKHKVYACEVTHQGLSSPVTKSFNRGEC
modifications: percent of population: Trp 50 oxidation 38.9; Asn 137 deamidation 1.2; percent of population: Met 103 oxidation 2.5; Met 248 oxidation 47.7; Asn 311 deamidation 6.5; Met 354 oxidation 8.2; Asn 380 deamidation 8.6; Asn 385 deamidation 1.3; Met 424 oxidation 26.2; Asn 430 deamidation 1.1; Lys 443 clipped 96.7
notes: 5 mM AAPH; HMW 4.9%; also called AAPH, 40° C., 1 day; AAPH Day 1
